# Tests used:
# Assay in all cases: pull-down binding Z-score (relative to library population); higher = stronger binding
# [1] = tested on: G-clamp-N3 (biotin conjugate); details: RNA library: Library-1 (pre-miRNA loops + repeats)
# Outline: (§1)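 Binding is given as a Z-score against the library mean and standard deviation, calculated after removing the beads-only signal and averaging barcoded replicate probes without their highest and lowest values. Cy5- or Cy3-end-labelled RNA library (1 μg) was heat-folded in phosphate/NaCl/KCl buffer and incubated 60 min at 25 °C with streptavidin beads bearing 100 pmol of biotin-conjugated small molecule. After three washes, RNA eluted in hot SDS was hybridised to a DNA barcode microarray for 20 h at 55.5 °C.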
# [2] = tested on: TO-3-N3 (biotin conjugate); details: RNA library: Library-2
# Outline: as §1
# [3] = tested on: TO-3-N3-2 (biotin conjugate); details: RNA library: Library-2
# Outline: as §1
# TO-N3 (biotin conjugate) = details: RNA library: Library-2
# Outline: as §1
# [4] = tested on: TO-N3-2 (biotin conjugate); details: RNA library: Library-2
# Outline: as §1
Sequence,pull-down binding Z-score [1],pull-down binding Z-score [2],pull-down binding Z-score [3],pull-down binding Z-score (TO-N3 (biotin conjugate)),pull-down binding Z-score [4]
UGUGUUCAGUGGAACCAAGGUAAACACA [hsa-mir-624],1.58,1.29,0.95,1.56,1.22
UGUUAAGGCAUGUUCAGGAACA [hsa-mir-1265],2.1,-0.0763,0.401,0.28,0.652
UGUUAGUGUUCAAGUCUACA [hsa-mir-4802],0.156,-0.747,-0.398,-0.509,-0.255
UGUUCACUUUCUAUAUGAUGAAUA [hsa-mir-656],-0.48,-1.09,-0.523,-1.4,-1.7
UGUUCAGUGGGAUUUGGAGA [hsa-mir-8061],-0.118,0.542,0.152,0.645,0.449
UGUUCAUGUCUCUCUGUGCACAGGGGACGAGAGUCA [hsa-mir-4420],0.39,-0.612,-0.232,-0.35,0.762
UGUUCAUUCACAUGAUCAUAAGUGGACA [hsa-mir-4643],0.373,0.535,0.169,0.388,-0.251
UGUUCGCUUUAUUUAUGAUGAAUCA [hsa-mir-539],0.0951,-0.769,-0.121,-0.916,-1.01
UGUUCGUUUUGCUCAUGUCGAAUC [hsa-mir-487b],-0.817,-0.794,-0.391,-0.701,-0.133
UGUUGACUGAAUAAUAAACA [hsa-mir-3139],-1.29,-0.946,-0.319,-1.23,-0.846
UGUUGAGCGCAGUAAGACAACA [hsa-mir-3529],0.892,-0.51,-0.0511,-0.482,-0.0925
UGUUGGCAGCCCAAGAUGACA [hsa-mir-4686],-0.568,0.375,-0.0148,0.581,0.58
UGUUGGGGGGACA [hsa-mir-4262],-0.216,2.24,1.63,1.67,0.707
UGUUGGUUGAAGAUGCCUUUCAACA [hsa-mir-552],0.0946,-0.807,-0.396,-0.937,-0.598
UGUUUAACUCCUCUCCACGUGAACA [hsa-mir-499a],-0.0505,0.828,-0.0532,0.731,0.116
UGUUUAUGUUAUUUAUGGUUAAACA [hsa-mir-376c],0.239,-0.655,-0.269,-0.887,-0.967
UGUUUCUUUAAUGAGGACGAAACA [hsa-mir-329-1],1.67,0.65,0.302,0.46,-0.326
UGUUUCUUUAUUGAGGACGAAACA [hsa-mir-329-2],0.973,-0.144,-0.343,-0.5,-0.89
UGUUUGUGUCUAAACUAUCAAACG [hsa-mir-122],-0.679,-0.183,-0.158,-0.332,-0.625
UGUUUUUGCCAUUAAAAAUAAUGGCAUUAAAAGUAAUGGCAAAAACG [hsa-mir-548al],-0.871,-0.484,-0.431,-1.01,-1.14
UUAAAUGUGUCAUUUAAAAAUUCAG [hsa-mir-1972-1_1972-2],-1.87,-0.0749,0.161,-0.138,-0.257
UUAACAUGUUGAGCAUUACUCAUGUUAG [hsa-mir-3684],-0.319,-0.527,-0.175,-0.597,-0.162
UUAACCUAAAAUGAGAAGGCUAA [hsa-mir-633],-1.29,-0.0885,-0.223,-0.212,-0.637
UUAAUGAGGCCAUAGA [hsa-mir-6863],-0.397,-0.374,-0.277,-0.328,-0.294
UUACCCAACGUCUCUGAGUCUCGGUUUUGAGAGGGUGAGUAA [hsa-mir-7973-1],0.981,0.0875,-0.0539,0.268,0.29

Sequence,pull-down binding Z-score [1],pull-down binding Z-score [2],pull-down binding Z-score [3],pull-down binding Z-score (TO-N3 (biotin conjugate)),pull-down binding Z-score [4]
UUACUCACCCUCUCAAAACCGAGACUCAGAGACGUUGGGUAA [hsa-mir-7973-2],-1.63,-0.25,0.138,-0.0759,0.271
UUACUGCAGGGAUCUUAGCAGUAC [hsa-mir-583],-0.752,0.295,0.0351,0.303,0.435
UUAGCCCAGCAAUGGGAGAGUGCUAA [hsa-mir-4636],0.508,0.252,0.32,0.111,0.154
UUAUACCUGAUGCUCACGUAUAA [hsa-mir-208a],-0.85,0.398,-0.0463,0.187,-0.742
UUAUCUGUCACCAGUCAGAUAACUGUCACCAGUCAGUUAA [hsa-mir-4764],-0.644,-0.842,-0.324,-0.684,-0.396
UUAUGUUUCUGAUCCGAAUAUAA [hsa-mir-208b],0.538,-0.229,-0.345,-0.483,-0.679
UUAUUCAGAGAGGCUAGAUCCUCUGUGUUGAGAAGGAUCA [hsa-mir-433],0.503,-0.385,0.23,-0.151,-0.0231
UUAUUUGAGAUGAGUUACAUCUUGGAGG [hsa-mir-1204],-0.564,0.0122,-0.295,-0.0949,-0.536
UUCACAGACUCUCCAAAAGUCUGAA [hsa-mir-4670],-1.33,-0.362,-0.404,-0.543,-0.533
UUCAGAGUCAAUAUAAUUUUCUAG [hsa-mir-29a],0.0825,0.749,0.27,0.485,-0.467
UUCAGAUUUUGGAACAUUUCGGAUUUUGGA [hsa-mir-1290],2.01,-0.172,-0.35,-0.297,-1.15
UUCAGCCUAAAGCAAUGAGAAGCCUCUGAAAGGCUGA [hsa-mir-1827],-0.0259,-0.198,-0.0588,0.212,0.76
UUCAUAGGGAAGCCUUUCCAUGAA [hsa-mir-4738],-0.912,-0.542,-0.446,-0.559,-0.574
UUCAUGUUCACUGAAAGGUAGAUUUUAAAAACAUGAA [hsa-mir-4790],-0.0488,-0.15,0.268,-0.371,-0.575
UUCAUUCAUUCGUUUGCACAUUCGGUGAA [hsa-mir-493],0.183,-0.556,-0.21,-0.736,-0.394
UUCAUUUUAUUUAUGAUGAG [hsa-mir-496],1.12,-0.959,-0.288,-1.2,-1.33
UUCCGGUGAUUAUCACAGCCAUGCCUUUACCUCCAGAA [hsa-mir-4493],-0.101,-0.84,-0.0994,-0.594,-0.00535
UUCCUUGUCUGUAGCCAUGUCUAUGGGCUCUUGAG [hsa-mir-571],-0.205,0.494,-0.0353,0.461,-0.131
UUCGCAUUAUUUAAUGAUGCCCA [hsa-mir-323b],-0.751,-0.392,-0.241,-0.467,-0.486
UUCGCGGUUGGGCU [hsa-mir-3143],0.897,1.21,0.258,1.33,0.693
UUCUAAUGCCAAGAA [hsa-mir-1279],-0.241,0.835,-0.117,0.773,-0.306
UUCUAGUCCCUAUUAGACUAGAA [hsa-mir-5681a],-0.692,-0.543,-0.506,-1,-1.08
UUCUCCUUGGGAAAAACAGAGAA [hsa-mir-605],-0.311,-0.446,-0.016,-0.65,-0.414
UUCUCGAGUCUAUGGCUCCGGCCGAGAG [hsa-mir-219a-1],-0.199,0.197,0.358,0.342,1.1
UUCUCGGUUGGCCGCAGACUCGUACAAGAA [hsa-mir-219b],0.895,-0.383,0.0156,0.0802,0.724

Sequence,pull-down binding Z-score [1],pull-down binding Z-score [2],pull-down binding Z-score [3],pull-down binding Z-score (TO-N3 (biotin conjugate)),pull-down binding Z-score [4]
UUCUCUUUAUUUAUGAUGAA [hsa-mir-494],-1.25,-0.968,-0.639,-1.56,-1.8
UUCUGCUGAAGACUGGUCUCUUCAUGUGUGAG [hsa-mir-6133],-0.872,-0.389,-0.0941,-0.371,0.00769
UUCUGCUGUGCCUUACAGCAGUAGAA [hsa-mir-3179-4_3179-1_3179-3_3179-2],0.67,0.188,-0.383,0.0349,-0.695
UUCUGUGGUUUGAAAGGAA [hsa-mir-1323],1.07,0.85,0.281,0.444,-0.252
UUCUGUUGUCAGAAAGAAGAGAA [hsa-mir-1283-1],0.462,0.146,-0.107,0.0942,-0.0355
UUCUGUUGUCUGAAAGAAAAGAA [hsa-mir-1283-2],0.164,-0.517,-0.145,-0.429,-0.382
UUCUGUUGUCUGAAAGAAACCAA [hsa-mir-518d],-1.34,-0.253,-0.0975,-0.0135,0.126
UUCUUCCUGGAGUCGGGGAAAAG [hsa-mir-320e],1.31,0.308,-0.0301,0.516,0.278
UUCUUGUACGAGUCUGCGGCCAACCGAGAA [hsa-mir-219a-2],-0.0874,-0.402,-0.366,0.347,0.974
UUCUUUGAGGAUCUGGCCUAAAGAG [hsa-mir-202],-0.443,1.14,0.362,1.27,0.811
UUCUUUUUUCUGAAAUUCUUCAGGAAGGA [hsa-mir-3167],-0.0544,0.368,0.823,0.0883,-0.017
UUGAACUUCAUUUCUCAUGCUCA [hsa-mir-6870],-1.6,-0.278,0.277,-0.104,0.145
UUGAAUCACACACACAUUUCAA [hsa-mir-4803],-0.451,-0.208,-0.154,-0.366,-0.644
UUGACCAAUCAUCUUAUUGACUAGA [hsa-mir-6502],-1.52,-0.403,-0.177,-0.471,-0.496
UUGAGAACCAG [hsa-mir-4328],-0.606,1.74,0.215,1.79,1.04
UUGAGAAGUAAUUGA [hsa-mir-548ak],0.0758,0.404,-0.0284,0.251,-0.239
UUGAGCAUCUUCUGGGCAGCUGA [hsa-mir-7854],-0.764,-0.0613,0.147,0.397,0.833
UUGAGGAGAGCACCACAGUGGUCAUCACACAG [hsa-mir-622],-1.25,0.0413,0.109,0.871,1.19
UUGAGGGACAUGGUUAAUGGAAUUGUCUCA [hsa-mir-342],0.369,0.338,0.0248,0.413,0.641
UUGAUGUCAGAAUGAGGUGUACCAA [hsa-mir-4714],1.29,-0.499,0.1,-0.148,-0.099
UUGAUGUCAGGUUAUCCCCAAGCAUAACCUCAC [hsa-mir-4639],-1.21,-0.576,-0.186,-0.499,-0.0627
UUGAUUCAGUAAAACAUUCAA [hsa-mir-891b],-0.189,-0.376,-0.0671,-0.695,-0.902
UUGCCCAA [hsa-mir-548bb],0.764,-0.0547,-0.317,-0.211,-0.332
UUGCUCACGGUAAGAAAAACAUGAGUAA [hsa-mir-8062],0.431,0.553,0.384,0.238,-0.388
UUGCUCUUUGGUGGAGAUA [hsa-mir-6074],0.646,0.509,-0.00756,0.505,0.241
